Legend:
AncSZ = experiment: phosphorylation enrichment, bacterial display (enrichment ratio); higher = better substrate or ligand; peptides without Tyr show the background
EPHB1 = EPHB1 (UniProt P54762); experiment: as above
EPHB2 = EPHB2 (UniProt P29323); experiment: as above
FGFR1 = FGFR1 (UniProt P11362); experiment: as above
FGFR3 = FGFR3 (UniProt P22607); experiment: as above
Fer (mouse) = experiment: as above
Fes = Fes (UniProt P07332); experiment: as above
Fyn = Fyn (UniProt P06241); experiment: as above
Sequence of Fyn (P06241 whole entry, looked up): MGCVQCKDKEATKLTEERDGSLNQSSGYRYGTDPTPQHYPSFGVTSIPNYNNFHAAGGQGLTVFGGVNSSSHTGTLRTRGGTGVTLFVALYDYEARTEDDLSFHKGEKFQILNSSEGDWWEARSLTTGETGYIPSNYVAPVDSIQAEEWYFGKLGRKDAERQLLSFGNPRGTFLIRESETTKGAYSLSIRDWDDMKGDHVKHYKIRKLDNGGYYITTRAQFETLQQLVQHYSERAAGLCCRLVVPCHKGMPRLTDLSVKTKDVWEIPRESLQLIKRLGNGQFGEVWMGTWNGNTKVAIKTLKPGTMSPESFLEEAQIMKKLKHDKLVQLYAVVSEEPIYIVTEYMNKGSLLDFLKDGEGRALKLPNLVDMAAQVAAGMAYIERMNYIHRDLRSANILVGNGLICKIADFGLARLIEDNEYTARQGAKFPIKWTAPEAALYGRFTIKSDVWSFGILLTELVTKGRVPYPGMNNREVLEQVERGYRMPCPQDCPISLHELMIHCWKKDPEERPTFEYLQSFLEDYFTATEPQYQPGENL

Hck = Hck (UniProt P08631); experiment: as above
Sequence of Hck (P08631 whole entry, looked up): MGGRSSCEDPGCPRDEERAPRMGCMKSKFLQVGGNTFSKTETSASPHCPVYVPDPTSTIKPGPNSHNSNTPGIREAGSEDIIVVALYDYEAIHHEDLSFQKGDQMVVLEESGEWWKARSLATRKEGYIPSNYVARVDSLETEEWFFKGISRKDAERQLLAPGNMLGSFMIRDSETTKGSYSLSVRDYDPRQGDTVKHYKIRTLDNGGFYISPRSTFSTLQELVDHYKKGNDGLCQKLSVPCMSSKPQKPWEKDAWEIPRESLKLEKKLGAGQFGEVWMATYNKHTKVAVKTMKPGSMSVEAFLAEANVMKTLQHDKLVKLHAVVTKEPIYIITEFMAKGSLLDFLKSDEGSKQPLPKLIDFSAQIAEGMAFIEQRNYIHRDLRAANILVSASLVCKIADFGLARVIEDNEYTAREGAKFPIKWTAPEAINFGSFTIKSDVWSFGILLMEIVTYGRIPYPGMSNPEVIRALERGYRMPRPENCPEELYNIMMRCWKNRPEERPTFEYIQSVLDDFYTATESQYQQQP

Jak2 = Jak2 (UniProt O60674); experiment: as above
Sequence of Jak2 (O60674 whole entry, looked up): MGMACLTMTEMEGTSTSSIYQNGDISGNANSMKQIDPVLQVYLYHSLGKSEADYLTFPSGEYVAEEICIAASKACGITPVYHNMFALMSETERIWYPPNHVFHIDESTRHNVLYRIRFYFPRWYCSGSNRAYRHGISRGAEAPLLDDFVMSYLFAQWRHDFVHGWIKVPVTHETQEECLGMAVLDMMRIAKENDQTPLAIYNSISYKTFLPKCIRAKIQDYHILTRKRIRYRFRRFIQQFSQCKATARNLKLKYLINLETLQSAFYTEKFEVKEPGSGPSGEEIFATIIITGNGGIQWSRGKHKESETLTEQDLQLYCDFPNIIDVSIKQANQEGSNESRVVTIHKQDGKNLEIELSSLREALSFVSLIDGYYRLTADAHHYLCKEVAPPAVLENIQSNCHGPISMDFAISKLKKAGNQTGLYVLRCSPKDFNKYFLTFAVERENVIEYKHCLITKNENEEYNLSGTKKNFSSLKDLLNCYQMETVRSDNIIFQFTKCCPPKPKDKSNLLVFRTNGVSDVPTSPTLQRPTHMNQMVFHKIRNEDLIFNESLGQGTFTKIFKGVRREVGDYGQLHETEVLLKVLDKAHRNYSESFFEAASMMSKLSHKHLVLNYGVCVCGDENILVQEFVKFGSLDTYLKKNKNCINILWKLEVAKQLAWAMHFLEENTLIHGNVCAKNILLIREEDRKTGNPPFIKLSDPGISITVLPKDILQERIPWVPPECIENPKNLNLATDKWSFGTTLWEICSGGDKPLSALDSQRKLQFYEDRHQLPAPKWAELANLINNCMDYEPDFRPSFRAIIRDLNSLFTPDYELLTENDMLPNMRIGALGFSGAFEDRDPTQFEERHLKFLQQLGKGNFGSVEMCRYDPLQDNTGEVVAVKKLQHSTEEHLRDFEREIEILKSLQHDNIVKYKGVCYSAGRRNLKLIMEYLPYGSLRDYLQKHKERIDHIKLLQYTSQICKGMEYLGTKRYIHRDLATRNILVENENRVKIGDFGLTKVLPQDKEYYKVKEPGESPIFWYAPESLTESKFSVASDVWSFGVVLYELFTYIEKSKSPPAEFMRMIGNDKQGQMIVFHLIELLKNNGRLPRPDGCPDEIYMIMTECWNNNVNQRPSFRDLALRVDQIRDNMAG

MERTK = MERTK (UniProt Q12866); experiment: as above
Sequence of MERTK (Q12866 whole entry, looked up): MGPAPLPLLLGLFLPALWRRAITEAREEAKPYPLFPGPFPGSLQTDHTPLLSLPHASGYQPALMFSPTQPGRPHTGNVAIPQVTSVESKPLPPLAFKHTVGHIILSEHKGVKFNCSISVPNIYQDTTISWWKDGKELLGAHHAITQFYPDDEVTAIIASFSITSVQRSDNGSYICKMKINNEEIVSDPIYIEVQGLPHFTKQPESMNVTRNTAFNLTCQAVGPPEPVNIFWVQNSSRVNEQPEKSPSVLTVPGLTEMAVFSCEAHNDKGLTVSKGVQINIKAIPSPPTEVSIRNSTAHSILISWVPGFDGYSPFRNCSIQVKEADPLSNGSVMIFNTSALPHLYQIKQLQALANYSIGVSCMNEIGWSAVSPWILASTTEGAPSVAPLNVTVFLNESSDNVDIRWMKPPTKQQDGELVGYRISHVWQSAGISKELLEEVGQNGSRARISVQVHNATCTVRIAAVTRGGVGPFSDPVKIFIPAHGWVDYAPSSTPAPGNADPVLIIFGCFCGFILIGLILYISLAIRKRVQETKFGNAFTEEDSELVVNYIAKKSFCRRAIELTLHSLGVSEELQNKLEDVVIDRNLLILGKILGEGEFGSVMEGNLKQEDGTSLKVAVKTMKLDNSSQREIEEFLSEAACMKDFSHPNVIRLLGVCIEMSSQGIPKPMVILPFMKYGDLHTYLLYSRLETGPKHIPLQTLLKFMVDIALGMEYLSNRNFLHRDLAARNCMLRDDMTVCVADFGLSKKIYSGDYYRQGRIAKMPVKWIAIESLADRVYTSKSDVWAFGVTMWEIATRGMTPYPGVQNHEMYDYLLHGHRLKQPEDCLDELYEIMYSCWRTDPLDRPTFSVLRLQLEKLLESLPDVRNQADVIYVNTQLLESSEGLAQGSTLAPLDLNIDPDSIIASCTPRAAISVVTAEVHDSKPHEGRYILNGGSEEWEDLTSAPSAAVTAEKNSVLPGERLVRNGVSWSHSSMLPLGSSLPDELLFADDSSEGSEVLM

c-Abl (mouse) = experiment: as above
c-Src = experiment: as above
Grb2 SH2 = Grb2 SH2 (UniProt P62993); experiment: SH2 binding enrichment of the phosphorylated peptide, bacterial display (enrichment ratio); higher = better substrate or ligand; peptides without Tyr show the background
Sequence of Grb2 SH2 (P62993 whole entry, looked up): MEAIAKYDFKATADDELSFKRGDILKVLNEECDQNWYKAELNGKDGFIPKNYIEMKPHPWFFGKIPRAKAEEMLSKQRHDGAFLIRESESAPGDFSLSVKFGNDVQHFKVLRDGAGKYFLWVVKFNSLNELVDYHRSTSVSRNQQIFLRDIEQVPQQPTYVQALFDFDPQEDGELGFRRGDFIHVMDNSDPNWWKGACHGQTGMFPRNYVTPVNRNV

SHP2-C SH2 = experiment: as above
c-Src SH2 = experiment: as above
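Throughout, for SH2 binding enrichment of the phosphorylated peptide, bacterial display: peptide library displayed on the E. coli surface as eCPX fusions, selected cells deep-sequenced, score is each peptide's frequency after selection divided by its frequency in the input.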
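Throughout, for phosphorylation enrichment, bacterial display: 11-residue human phosphosite peptides and single-mutation variants displayed on the E. coli surface, counted by deep sequencing, each peptide's frequency after selection divided by its frequency in the unselected input library; frequency after pTyr selection over input frequency; kinase dosed for 20-30% of maximal phosphorylation in three min.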

Sequence of FGFR1 (P11362 whole entry, looked up): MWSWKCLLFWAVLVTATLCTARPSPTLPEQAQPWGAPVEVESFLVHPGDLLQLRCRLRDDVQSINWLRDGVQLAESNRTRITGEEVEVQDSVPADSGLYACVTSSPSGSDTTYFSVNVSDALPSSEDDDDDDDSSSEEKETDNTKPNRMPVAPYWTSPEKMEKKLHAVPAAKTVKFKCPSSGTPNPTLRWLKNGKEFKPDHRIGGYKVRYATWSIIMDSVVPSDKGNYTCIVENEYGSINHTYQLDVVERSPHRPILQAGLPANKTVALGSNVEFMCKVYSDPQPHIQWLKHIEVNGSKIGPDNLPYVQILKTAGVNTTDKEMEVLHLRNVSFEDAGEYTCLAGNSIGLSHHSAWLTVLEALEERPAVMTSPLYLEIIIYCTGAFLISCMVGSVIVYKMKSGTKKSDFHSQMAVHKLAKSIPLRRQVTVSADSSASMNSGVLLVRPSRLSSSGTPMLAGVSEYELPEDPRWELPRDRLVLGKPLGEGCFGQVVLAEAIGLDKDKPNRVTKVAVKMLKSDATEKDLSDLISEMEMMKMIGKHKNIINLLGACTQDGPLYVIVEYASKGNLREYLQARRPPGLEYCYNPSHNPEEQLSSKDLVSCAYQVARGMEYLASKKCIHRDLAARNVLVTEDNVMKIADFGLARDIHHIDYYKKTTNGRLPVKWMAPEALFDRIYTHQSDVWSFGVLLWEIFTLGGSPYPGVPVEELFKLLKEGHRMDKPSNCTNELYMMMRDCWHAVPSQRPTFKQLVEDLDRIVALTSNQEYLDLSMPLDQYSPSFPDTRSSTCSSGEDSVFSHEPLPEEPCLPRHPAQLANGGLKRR
Sequence of FGFR3 (P22607 whole entry, looked up): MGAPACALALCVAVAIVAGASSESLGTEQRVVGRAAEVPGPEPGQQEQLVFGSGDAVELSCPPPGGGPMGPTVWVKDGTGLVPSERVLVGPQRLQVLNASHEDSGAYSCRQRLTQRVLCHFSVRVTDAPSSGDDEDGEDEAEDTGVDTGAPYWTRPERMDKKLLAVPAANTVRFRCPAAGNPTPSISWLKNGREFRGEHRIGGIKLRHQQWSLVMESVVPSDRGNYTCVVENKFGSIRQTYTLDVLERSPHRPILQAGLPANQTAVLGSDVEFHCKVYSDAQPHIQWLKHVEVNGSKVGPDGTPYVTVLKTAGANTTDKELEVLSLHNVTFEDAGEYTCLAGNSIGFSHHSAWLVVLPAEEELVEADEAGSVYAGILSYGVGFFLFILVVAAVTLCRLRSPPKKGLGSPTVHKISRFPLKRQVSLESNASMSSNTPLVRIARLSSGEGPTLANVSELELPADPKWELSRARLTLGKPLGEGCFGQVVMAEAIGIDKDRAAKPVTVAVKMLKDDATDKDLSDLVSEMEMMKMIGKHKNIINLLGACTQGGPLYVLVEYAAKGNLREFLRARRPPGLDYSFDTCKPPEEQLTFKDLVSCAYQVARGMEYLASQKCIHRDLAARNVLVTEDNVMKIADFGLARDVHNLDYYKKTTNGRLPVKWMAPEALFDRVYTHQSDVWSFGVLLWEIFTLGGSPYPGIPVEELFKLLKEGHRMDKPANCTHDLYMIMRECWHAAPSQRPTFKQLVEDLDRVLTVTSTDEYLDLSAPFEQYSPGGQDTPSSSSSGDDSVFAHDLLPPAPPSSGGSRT

Sequence | phosphorylation enrichment (AncSZ) | phosphorylation enrichment (EPHB1) | phosphorylation enrichment (EPHB2) | phosphorylation enrichment (FGFR1) | phosphorylation enrichment (FGFR3) | phosphorylation enrichment (Fer (mouse)) | phosphorylation enrichment (Fes) | phosphorylation enrichment (Fyn) | phosphorylation enrichment (Hck) | phosphorylation enrichment (Jak2) | phosphorylation enrichment (MERTK) | phosphorylation enrichment (c-Abl (mouse)) | phosphorylation enrichment (c-Src) | SH2 binding enrichment (Grb2 SH2) | SH2 binding enrichment (SHP2-C SH2) | SH2 binding enrichment (c-Src SH2)
YSTDYYRVGGH [NTRK2_Y707] | 2.31 | 5.71 | 3.5 | 14.2 | 11.1 | 0.44 | 0.732 | 1.68 | 2.55 | 8.96 | 9.44 | 1.03 | 2.22 | 0.787 | 0.922 | 0.691
NNKKDYFDMFE [SLC26A3_Y526_K521N_YF] | 1.08 | 1.12 | 0.791 | 5.31 | 3.74 | 0.485 | 1.16 | 0.415 | 0.504 | 0.991 | 0.46 | 0.723 | 0.488 | 0.707 | 0.479 | 0.518
SFPSYYTSHVQ [NEFL_Y443] | 0.88 | 1.88 | 1.1 | 1.86 | 1.76 | 0.759 | 0.914 | 0.59 | 1.1 | 4.39 | 5.38 | 1.85 | 0.737 | 1.18 | 1.2 | 0.877
FLTQHYDAEPQ [ANG_Y38_K41E] | 0.853 | 0.413 | 0.554 | 0.583 | 0.684 | 0.511 | 0.989 | 0.478 | 0.534 | 0.627 | 0.502 | 0.785 | 0.601 | 0.992 | 0.635 | 0.612
APTSGYREFVH [IL4R_Y575_Q576R] | 0.681 | 0.378 | 0.342 | 0.462 | 0.474 | 0.485 | 0.561 | 0.422 | 0.379 | 0.441 | 0.483 | 0.508 | 0.397 | 0.882 | 0.561 | 0.518
NQELIYEGQRL [TBK1_Y354_R357Q] | 1.71 | 1 | 1.11 | 0.628 | 0.739 | 11.6 | 1.42 | 7.4 | 7.73 | 0.956 | 1.52 | 2.65 | 6.85 | 0.537 | 0.709 | 0.352
YIRKDYEACKA [BBS4_Y48] | 0.553 | 0.469 | 0.398 | 0.466 | 0.38 | 0.403 | 0.464 | 0.445 | 0.404 | 0.407 | 0.398 | 0.374 | 0.386 | 0.982 | 1.11 | 0.796
RHPLEYLRQYP [NARS2_Y138] | 0.664 | 0.523 | 0.45 | 0.75 | 0.586 | 0.536 | 1.13 | 0.579 | 0.561 | 1.22 | 0.454 | 1.37 | 0.577 | 1.38 | 0.938 | 0.775
ARGMEYLASKK [FGFR1_Y613] | 0.61 | 0.356 | 0.367 | 0.285 | 0.409 | 0.324 | 0.566 | 0.364 | 0.367 | 0.662 | 0.354 | 0.506 | 0.403 | 0.529 | 0.513 | 0.456
RLRAAYNLVKR [PFKM_Y103] | 1.16 | 0.571 | 0.715 | 0.658 | 1.01 | 0.771 | 1.04 | 0.632 | 0.698 | 0.766 | 0.559 | 0.815 | 0.653 | 0.721 | 0.489 | 0.39
LKMLVYMDMSK [LRRC7_Y234_L235M] | 1.45 | 1.79 | 0.804 | 1.02 | 0.984 | 0.842 | 2.25 | 0.807 | 0.802 | 1.85 | 0.689 | 1.23 | 0.872 | 0.849 | 0.742 | 0.661
PSARTYCFKQE [KLHDC9_Y175_YF] | 0.743 | 0.386 | 0.595 | 0.469 | 0.571 | 0.415 | 0.802 | 0.622 | 0.413 | 0.624 | 0.429 | 0.491 | 0.494 | 0.944 | 0.622 | 0.632
EVASVYESFQP [MAVS_Y92_Q93E_YF] | 1.91 | 1.1 | 1.01 | 0.668 | 0.852 | 14 | 1.31 | 11.2 | 8.64 | 1.65 | 3.2 | 1.56 | 8.96 | 0.783 | 0.475 | 0.561
ASYGPNTRVQS [FOXL2_Y258_Y258N] | 0.537 | 0.474 | 0.407 | 0.444 | 0.407 | 0.448 | 0.596 | 0.41 | 0.454 | 0.515 | 0.435 | 0.559 | 0.478 | 0.872 | 0.582 | 0.543
ILIFHYAKGQP [MPZ_Y82_S78L] | 1.32 | 0.753 | 0.705 | 0.612 | 0.85 | 0.819 | 1.37 | 0.504 | 0.674 | 1.01 | 0.475 | 0.904 | 0.508 | 1.47 | 1.27 | 1.1
SRGHQYQELPR [KCNH2_Y1009_R1007H] | 0.527 | 0.466 | 0.602 | 0.609 | 0.464 | 0.413 | 0.672 | 0.487 | 1.06 | 0.721 | 0.576 | 0.589 | 0.35 | 1.04 | 0.807 | 5.11
SLFQFYFQQKG [CHKB_Y381_R377L] | 1.35 | 0.657 | 0.568 | 0.521 | 0.833 | 0.612 | 1.42 | 0.397 | 0.488 | 1.43 | 0.403 | 0.932 | 0.425 | 1.58 | 1.37 | 1.02

Sequence | phosphorylation enrichment (AncSZ) | phosphorylation enrichment (EPHB1) | phosphorylation enrichment (EPHB2) | phosphorylation enrichment (FGFR1) | phosphorylation enrichment (FGFR3) | phosphorylation enrichment (Fer (mouse)) | phosphorylation enrichment (Fes) | phosphorylation enrichment (Fyn) | phosphorylation enrichment (Hck) | phosphorylation enrichment (Jak2) | phosphorylation enrichment (MERTK) | phosphorylation enrichment (c-Abl (mouse)) | phosphorylation enrichment (c-Src) | SH2 binding enrichment (Grb2 SH2) | SH2 binding enrichment (SHP2-C SH2) | SH2 binding enrichment (c-Src SH2)
MHDSNCVSKGS [PDGFRA_Y849_Y849C] | 0.57 | 0.396 | 0.367 | 0.456 | 0.485 | 0.388 | 0.72 | 0.387 | 0.456 | 0.683 | 0.384 | 0.559 | 0.414 | 0.86 | 0.609 | 0.572
DFPMGYPSFLA [TBCK_Y153_I151M_YF] | 0.64 | 0.496 | 0.469 | 0.424 | 0.49 | 0.432 | 0.832 | 0.424 | 0.358 | 0.691 | 0.429 | 0.592 | 0.428 | 0.672 | 0.523 | 0.354
KKYPDYIQSAM [SGMS2_Y59_I62S] | 0.839 | 0.543 | 0.396 | 0.484 | 0.487 | 0.373 | 0.772 | 0.443 | 0.413 | 0.716 | 0.392 | 0.595 | 0.428 | 0.883 | 0.746 | 0.394
SGEKPYKCSVC [ZNF543_Y283_E287V] | 0.495 | 0.261 | 0.298 | 0.342 | 0.355 | 0.398 | 0.524 | 0.373 | 0.255 | 0.434 | 0.416 | 0.493 | 0.365 | 1.02 | 0.712 | 0.532
GSRGKYFSGFR [ATM_Y332_S333F] | 0.547 | 0.425 | 0.399 | 0.415 | 0.412 | 0.325 | 0.736 | 0.386 | 0.351 | 0.885 | 0.481 | 0.657 | 0.616 | 0.963 | 0.833 | 0.544
IGEGTYRTVFK [CDK5_Y15_G16R] | 0.542 | 0.362 | 0.432 | 0.353 | 0.533 | 0.317 | 0.738 | 0.459 | 0.532 | 0.781 | 0.384 | 0.638 | 0.558 | 0.674 | 0.614 | 0.47
IITDFYVDMKF [MPP4_Y567_V562I_YF] | 1.31 | 1.41 | 1.08 | 1.37 | 1.39 | 0.953 | 1.66 | 0.527 | 0.722 | 1.75 | 0.511 | 0.905 | 0.58 | 0.799 | 0.906 | 0.452
PPSELYFVKVD [TERT_Y707_P704S] | 1.19 | 0.699 | 0.965 | 0.815 | 0.92 | 0.815 | 1.63 | 0.784 | 1.95 | 0.925 | 1.82 | 0.733 | 1.26 | 0.614 | 0.679 | 0.405
GYDHSYYFIAT [ESD_Y262] | 2.05 | 1.95 | 1.24 | 11.1 | 9.89 | 1.1 | 1.22 | 1.41 | 2.02 | 6.79 | 4.8 | 0.759 | 1.57 | 0.702 | 0.727 | 0.871
QADIIYVNTQL [MERTK_Y872_V870I] | 1.28 | 1.18 | 0.518 | 0.712 | 0.84 | 4.18 | 1.29 | 1.09 | 0.886 | 1.05 | 0.571 | 1.02 | 1.24 | 0.916 | 0.543 | 0.475
PVDVAYRHGFF [PLEC_Y2967_R2969H_YF] | 0.482 | 0.32 | 0.268 | 0.574 | 0.458 | 0.342 | 0.85 | 0.324 | 0.553 | 0.511 | 0.366 | 0.473 | 0.325 | 0.722 | 0.576 | 0.552
MTKEQYIKMNR [ARFGEF2_Y797] | 0.595 | 0.365 | 0.357 | 0.458 | 0.445 | 0.346 | 0.558 | 0.397 | 0.407 | 0.563 | 0.348 | 0.335 | 0.369 | 0.823 | 0.672 | 0.454
AGADGYDFLAP [FOXL2_Y186_G187D_YF] | 0.984 | 0.554 | 0.645 | 0.543 | 0.744 | 0.598 | 1.17 | 0.452 | 0.79 | 1.03 | 0.708 | 0.785 | 0.555 | 0.883 | 0.661 | 5.67
IKKLIYVHLVI [JAGN1_Y42] | 1.02 | 0.669 | 0.59 | 0.604 | 0.842 | 0.592 | 1.32 | 0.496 | 0.671 | 0.982 | 0.569 | 0.852 | 0.424 | 1.1 | 0.775 | 0.631
EEGEEYGGGGG [TUBA1A_Y451] | 1.19 | 0.638 | 0.769 | 0.604 | 0.701 | 0.552 | 1.32 | 0.557 | 0.602 | 0.946 | 0.485 | 0.815 | 0.531 | 0.97 | 0.744 | 0.6
LNPFIYSLRNR [OR1A1_Y288] | 1.46 | 0.437 | 0.618 | 0.891 | 0.579 | 0.6 | 1.55 | 0.657 | 1.28 | 1.43 | 0.493 | 0.974 | 2.23 | 0.873 | 1.55 | 0.486
